According to publication PMC6793440 (Journal of Experimental Botany, 2019):

Target: T1, His-labeled kinase domain of CEPR2 (CEPR2^KD-His, amino acids 642–977) (Arabidopsis thaliana, UniProt Q9C7T7 642-977)
T1 sequence: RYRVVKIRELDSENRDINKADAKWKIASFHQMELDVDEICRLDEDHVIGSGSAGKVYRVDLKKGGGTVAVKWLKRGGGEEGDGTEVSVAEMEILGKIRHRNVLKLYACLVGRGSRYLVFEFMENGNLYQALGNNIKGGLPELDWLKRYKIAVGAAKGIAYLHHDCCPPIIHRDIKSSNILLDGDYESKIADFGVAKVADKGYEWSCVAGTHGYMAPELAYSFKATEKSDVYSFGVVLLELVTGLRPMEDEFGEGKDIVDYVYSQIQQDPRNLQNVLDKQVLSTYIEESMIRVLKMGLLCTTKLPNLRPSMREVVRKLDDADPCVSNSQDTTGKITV
Experiment: pull-down

| Binder | binding result |
| --- | --- |
| GST-tagged PYL2 (PYL2–GST) (receptor) MSSSPAVKGLTDEEQKTLEPVIKTYHQFEPDPTTCTSLITQRIHAPASVVWPLIRRFDNPERYKHFVKRCRLISGDGDVGSVREVTVISGLPASTSTERLEFVDDDHRVLSFRVVGGEHRLKNYKSVTSVNEFLNQDSGKVYTVVLESYTVDIPEGNTEEDTKMFVDTVVKLNLQKLGVAATSAPMHDDE | binds |
| GST-tagged PYL4 (PYL4–GST) (receptor) MLAVHRPSSAVSDGDSVQIPMMIASFQKRFPSLSRDSTAARFHTHEVGPNQCCSAVIQEISAPISTVWSVVRRFDNPQAYKHFLKSCSVIGGDGDNVGSLRQVHVVSGLPAASSTERLDILDDERHVISFSVVGGDHRLSNYRSVTTLHPSPISGTVVVESYVVDVPPGNTKEETCDFVDVIVRCNLQSLAKIAENTAAESKKKMSL | binds |
